The values below come from patent US20210115102.

Data set [1] deals with CTSL1_1 FRET substrate (ALFKSSFP).
Data set [2] concerns CTSL1_2 8-mer FRET substrate Mca-ALFFSSPPK-Dnp.
The test system of data set [3] is CTSL1_2 9-mer FRET substrate Mca-ALFFSSPPSK-Dnp.

Sequence of ALU30-18 (chain, as listed by the source): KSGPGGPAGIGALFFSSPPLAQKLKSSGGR
Sequence of ALU30-13 (chain, as listed by the source): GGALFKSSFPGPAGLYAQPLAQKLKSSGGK
Sequence of ALU30-5 (chain, as listed by the source): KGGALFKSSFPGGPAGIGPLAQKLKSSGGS
Sequence of ALU30-7 (chain, as listed by the source): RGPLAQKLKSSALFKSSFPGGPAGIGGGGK
Sequence of ALU30-14 (chain, as listed by the source): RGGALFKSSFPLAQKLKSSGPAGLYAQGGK
Sequence of Cathepsin L (CTSL1), recombinant human (chain, as listed by the source): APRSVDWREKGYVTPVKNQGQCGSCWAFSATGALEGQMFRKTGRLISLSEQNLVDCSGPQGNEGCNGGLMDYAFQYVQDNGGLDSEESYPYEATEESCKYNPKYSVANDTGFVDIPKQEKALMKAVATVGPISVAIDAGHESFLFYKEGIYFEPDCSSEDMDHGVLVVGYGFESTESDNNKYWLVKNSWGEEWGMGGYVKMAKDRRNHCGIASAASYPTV
Sequence of ALU30-15 (chain, as listed by the source): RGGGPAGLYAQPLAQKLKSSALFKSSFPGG
Sequence of ALU30-9 (chain, as listed by the source): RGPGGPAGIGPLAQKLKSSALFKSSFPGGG
Sequence of ALU30-6 (chain, as listed by the source): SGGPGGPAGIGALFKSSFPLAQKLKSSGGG
Sequence of ALU30-2 (chain, as listed by the source): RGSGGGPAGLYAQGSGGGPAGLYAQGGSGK
Sequence of ALU30-1 (chain, as listed by the source): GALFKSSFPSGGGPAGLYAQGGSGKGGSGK
Sequence of ALU30-10 (chain, as listed by the source): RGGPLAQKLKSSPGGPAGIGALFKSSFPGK
Sequence of ALU30-8 (chain, as listed by the source): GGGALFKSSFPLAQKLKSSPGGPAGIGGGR
Sequence of MMP-9, recombinant human (chain, as listed by the source): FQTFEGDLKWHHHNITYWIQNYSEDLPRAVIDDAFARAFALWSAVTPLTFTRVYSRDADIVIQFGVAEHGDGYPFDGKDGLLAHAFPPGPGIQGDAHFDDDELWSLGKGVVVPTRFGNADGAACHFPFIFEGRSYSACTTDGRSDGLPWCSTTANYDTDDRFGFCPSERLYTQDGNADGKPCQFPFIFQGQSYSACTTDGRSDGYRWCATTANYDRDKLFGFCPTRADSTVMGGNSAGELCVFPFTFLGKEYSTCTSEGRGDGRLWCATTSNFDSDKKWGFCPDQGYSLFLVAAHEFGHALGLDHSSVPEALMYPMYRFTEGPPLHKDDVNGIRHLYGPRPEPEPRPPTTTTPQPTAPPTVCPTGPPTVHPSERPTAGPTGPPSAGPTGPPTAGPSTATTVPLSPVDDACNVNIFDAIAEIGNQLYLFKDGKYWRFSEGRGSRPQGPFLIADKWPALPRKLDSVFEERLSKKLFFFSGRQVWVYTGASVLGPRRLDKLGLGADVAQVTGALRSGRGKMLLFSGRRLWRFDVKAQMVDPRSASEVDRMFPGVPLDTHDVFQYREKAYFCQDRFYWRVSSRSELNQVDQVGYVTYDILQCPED
Sequence of ALU30-12 (chain, as listed by the source): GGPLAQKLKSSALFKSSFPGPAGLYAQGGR
Sequence of ALU30-17 (chain, as listed by the source): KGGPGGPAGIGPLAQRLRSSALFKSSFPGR
Sequence of ALU30-16 (chain, as listed by the source): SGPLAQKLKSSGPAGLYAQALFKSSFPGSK
Sequence of ALU30-3 (chain, as listed by the source): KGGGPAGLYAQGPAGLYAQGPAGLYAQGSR
Sequence of ALU30-11 (chain, as listed by the source): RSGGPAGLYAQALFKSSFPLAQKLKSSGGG
Sequence of ALU30-4 (chain, as listed by the source): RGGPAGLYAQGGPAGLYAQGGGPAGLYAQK
Sequence of ALU30-19 (chain, as listed by the source): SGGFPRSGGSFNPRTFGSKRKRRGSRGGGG

Take Cathepsin L (CTSL1), recombinant human: the “30-mer substrate degradation (MSP-MS)” value was “The most efficiently cleaved peptides were those containing the FAPa_1, CTSL1_1 and ADAM17_2 motifs, in multiple orders” in the data set with ALU30-10; “Peptides bearing the MMP14_1 motif with CTSL1_1 and ADAM17_2 were slightly lower efficiency” with ALU30-11; “Peptides bearing the MMP14_1 motif with CTSL1_1 and ADAM17_2 were slightly lower efficiency” with ALU30-12; “Peptides bearing the MMP14_1 motif with CTSL1_1 and ADAM17_2 were slightly lower efficiency” with ALU30-13; “Peptides bearing the MMP14_1 motif with CTSL1_1 and ADAM17_2 were slightly lower efficiency” with ALU30-14; “Peptides bearing the MMP14_1 motif with CTSL1_1 and ADAM17_2 were slightly lower efficiency” in the data set with ALU30-15. Also, the “30-mer substrate degradation (MSP-MS)” value in the data set with ALU30-16 was “Peptides bearing the MMP14_1 motif with CTSL1_1 and ADAM17_2 were slightly lower efficiency”; in the data set with ALU30-17, “CTSL1 treatment of the 30-mer peptide library produced cleavages in all peptides bearing a CTSL1_1 or CTSL1_2 motif”; in the data set with ALU30-18, “CTSL1 treatment of the 30-mer peptide library produced cleavages in all peptides bearing a CTSL1_1 or CTSL1_2 motif”; in the data set on ALU30-1, “CTSL1 treatment of the 30-mer peptide library produced cleavages in all peptides bearing a CTSL1_1 or CTSL1_2 motif”; in the data set with ALU30-5 it was “The most efficiently cleaved peptides were those containing the FAPa_1, CTSL1_1 and ADAM17_2 motifs, in multiple orders”; in the data set with ALU30-6, “The most efficiently cleaved peptides were those containing the FAPa_1, CTSL1_1 and ADAM17_2 motifs, in multiple orders”. Also, the “30-mer substrate degradation (MSP-MS)” value in the data set with ALU30-7 is “The most efficiently cleaved peptides were those containing the FAPa_1, CTSL1_1 and ADAM17_2 motifs, in multiple orders”; with ALU30-8, “The most efficiently cleaved peptides were those containing the FAPa_1, CTSL1_1 and ADAM17_2 motifs, in multiple orders”; in the data set on ALU30-9, “The most efficiently cleaved peptides were those containing the FAPa_1, CTSL1_1 and ADAM17_2 motifs, in multiple orders”. In the data set with ALU30-15, the “cleavage efficiency of 30-mer library peptides” value is reported as “lower CTSL1 activity”. Also, the “30-mer cleavage (substrate disappearance and product formation)” value was “Both peptides showed rapid disappearance of substrate (squares) and product formation from cleavage at the target scissile bond” in the data set on ALU30-18; “Both peptides showed rapid disappearance of substrate (squares) and product formation from cleavage at the target scissile bond” in the data set with ALU30-6. Besides, the FRET substrate cleavage result in data set [1] is on record as “CTSL1 cleaves the FRET substrate bearing the CTSL1_1 motif highly efficiently”; in data set [2], “the new CTSL1_2 motif was not cleaved in the context of an 8-mer FRET peptide”. Further, in [3], the “FRET substrate cleavage, catalytic efficiency” value is given as “This 9-mer FRET substrate bearing the CTSL1_2 motif produced comparable catalytic efficiency to the CTSL1_1 motif”.
Thrombin, recombinant human: the “30-mer substrate degradation (MSP-MS)” value with ALU30-10 was “Thrombin showed higher activity than Factor Xa, and it cleaved each of the 30-mer peptides”; in the data set on ALU30-11, “Thrombin showed higher activity than Factor Xa, and it cleaved each of the 30-mer peptides”; with ALU30-12, “the peptides Alu30-12, Alu30-13 and Alu30-15, with MMP14_1 motifs in combination with ADAM17_2 and CTSL1_1, were cleaved at lower efficiency by thrombin”; in the data set on ALU30-13 it was “the peptides Alu30-12, Alu30-13 and Alu30-15, with MMP14_1 motifs in combination with ADAM17_2 and CTSL1_1, were cleaved at lower efficiency by thrombin”; with ALU30-14, “Thrombin showed higher activity than Factor Xa, and it cleaved each of the 30-mer peptides”; in the data set on ALU30-15, “the peptides Alu30-12, Alu30-13 and Alu30-15, with MMP14_1 motifs in combination with ADAM17_2 and CTSL1_1, were cleaved at lower efficiency by thrombin”. Further, the “30-mer substrate degradation (MSP-MS)” value in the data set on ALU30-16 was “Thrombin showed higher activity than Factor Xa, and it cleaved each of the 30-mer peptides”; with ALU30-17, “The two alternate ADAM17 motifs were cleaved with similar efficiency (peptides Alu30-17 vs Alu30-9)”; in the data set with ALU30-18 it was “the CTSL1_2 motif had lower cleavage activity than did the CTSL1_1 motif (peptides Alu30-18 vs Alu30-6)”; in the data set on ALU30-19, “Thrombin showed higher activity than Factor Xa, and it cleaved each of the 30-mer peptides”; in the data set on ALU30-1, “The peptides Alu30-1 and Alu30-3 were the most rapidly cleaved in the library”; in the data set on ALU30-2, “The peptide Alu30-2, bearing two MMP14_1 motifs, was less susceptible to thrombin”. Besides, the “30-mer substrate degradation (MSP-MS)” value with ALU30-3 is “The peptides Alu30-1 and Alu30-3 were the most rapidly cleaved in the library”; with ALU30-4, “Alu30-4 was also an efficient substrate”; with ALU30-5, “Thrombin showed higher activity than Factor Xa, and it cleaved each of the 30-mer peptides”; in the data set with ALU30-6, “the CTSL1_2 motif had lower cleavage activity than did the CTSL1_1 motif (peptides Alu30-18 vs Alu30-6)”; in the data set with ALU30-7, “Thrombin showed higher activity than Factor Xa, and it cleaved each of the 30-mer peptides”; in the data set on ALU30-8, “Thrombin showed higher activity than Factor Xa, and it cleaved each of the 30-mer peptides”. Further, the “30-mer substrate degradation (MSP-MS)” value in the data set with ALU30-9 is on record as “The two alternate ADAM17 motifs were cleaved with similar efficiency (peptides Alu30-17 vs Alu30-9)”.
Take MMP-9, recombinant human: the “30-mer substrate degradation (MSP-MS)” value in the data set with ALU30-10 is listed as “the FAPα_1 motif was also cleaved within the peptides bearing FAPα_1 directly followed by the CTSL1_1 motif at PGGPAG|GALF (SEQ ID NO: 247); these were lower efficiency cleavages”; in the data set on ALU30-12 it was “The slowest peptides bear the MMP14_1 motif near the C-terminus of the 30-mer peptide”; in the data set on ALU30-13 it was “The next most efficient substrates contained the pair of motifs where MMP14_1 was followed directly by ADAM17_2”; with ALU30-14, “The slowest peptides bear the MMP14_1 motif near the C-terminus of the 30-mer peptide”; in the data set on ALU30-15, “The next most efficient substrates contained the pair of motifs where MMP14_1 was followed directly by ADAM17_2”; with ALU30-1 it was “The single or double MMP14_1 motif-bearing peptides were next in the order”. Besides, the “30-mer substrate degradation (MSP-MS)” value with ALU30-2 is “The single or double MMP14_1 motif-bearing peptides were next in the order”; in the data set on ALU30-3, “The most efficient MMP9 substrates were those that bore three-repeats of the MMP14_1 motif”; in the data set with ALU30-4, “The most efficient MMP9 substrates were those that bore three-repeats of the MMP14_1 motif”; in the data set with ALU30-5, “The FAPα_1 motif was not cleaved by MMP9, however, when followed either by the ADAM17_2 motif or the spacing residues GG”; in the data set on ALU30-6 it was “the FAPα_1 motif was also cleaved within the peptides bearing FAPα_1 directly followed by the CTSL1_1 motif at PGGPAG|GALF (SEQ ID NO: 247); these were lower efficiency cleavages”; in the data set with ALU30-7, “The FAPα_1 motif was not cleaved by MMP9, however, when followed either by the ADAM17_2 motif or the spacing residues GG”. The “30-mer substrate degradation (MSP-MS)” value in the data set with ALU30-8 was “The FAPα_1 motif was not cleaved by MMP9, however, when followed either by the ADAM17_2 motif or the spacing residues GG”; with ALU30-9, “The FAPα_1 motif was not cleaved by MMP9, however, when followed either by the ADAM17_2 motif or the spacing residues GG”. For the same substance, the “product formation at individual bonds (MSP-MS)” value in the data set with ALU30-1 and in the data set on ALU30-2 was “the specific cleavage of the Alu30-2 peptide was more efficient than the Alu30-1 peptide” in each case.
